Here are results for 2 proteins from paper PMC3271731 (Nature, 2011).

Data set [1] concerns the molecule itself. The experiment in a line: crystal structure.
Data set [2] deals with the molecule itself. The experiment in a line: crystal structure. This is another data set of the same source.

Read-outs that look alike come from different tables or passages of the source.

What is called stoichiometry N is the number of molecules, sites or subunits per partner or assembly.

B1: Pseudomonas aeruginosa 3-methylcrotonyl-CoA carboxylase α subunit (enzyme)
chain: MNPDYRSIQRLLVANRGEIACRVMRSARALGIGSVAVHSDIDRHARHVAEADIAVDLGGAKPADSYLRGDRIIAAALASGAQAIHPGYGFLSENADFARACEEAGLLFLGPPAAAIDAMGSKSAAKALMEEAGVPLVPGYHGEAQDLETFRREAGRIGYPVLLKAAAGGGGKGMKVVEREAELAEALSSAQREAKAAFGDARMLVEKYLLKPRHVEIQVFADRHGHCLYLNERDCSIQRRHQKVVEEAPAPGLGAELRRAMGEAAVRAAQAIGYVGAGTVEFLLDERGQFFFMEMNTRLQVEHPVTEAITGLDLVAWQIRVARGEALPLTQEQVPLNGHAIEVRLYAEDPEGDFLPASGRLMLYREAAAGPGRRVDSGVREGDEVSPFYDPMLAKLIAWGETREEARQRLLAMLAETSVGGLRTNLAFLRRILGHPAFAAAELDTGFIARHQDDLLPAPQALPEHFWQAAAEAWLQSEPGHRRDDDPHSPWSRNDGWRSALARESDLMLRCRDERRCVRLRHASPSQYRLDGDDLVSRVDGVTRRSAALRRGRQLFLEWEGELLAIEAVDPIAEAEAAHAHQGGLSAPMNGSIVRVLVEPGQTVEAGATLVVLEAMKMEHSIRAPHAGVVKALYCSEGELVEEGTPLVELDENQA
modifications: biotinylated Lys681 (numbered by the equivalent residue of HsMCC)
For the protein B1, the “stoichiometry N” value in “crystal structure [1]” was found to be 3.

B2: Pseudomonas aeruginosa 3-methylcrotonyl-CoA carboxylase β subunit (enzyme, UniProt Q9I297 1-535, looked up)
chain: MAILHTQINPRSAEFAANAATMLEQVNALRTLLGRIHEGGGSAAQARHSARGKLLVRERINRLLDPGSPFLELSALAAHEVYGEEVAAAGIVAGIGRVEGVECMIVGNDATVKGGTYYPLTVKKHLRAQAIALENRLPCIYLVDSGGANLPRQDEVFPDREHFGRIFFNQANMSARGIPQIAVVMGSCTAGGAYVPAMSDETVMVREQATIFLAGPPLVKAATGEVVSAEELGGADVHCKVSGVADHYAEDDDHALAIARRCVANLNWRKQGQLQCRAPRAPLYPAEELYGVIPADSKQPYDVREVIARLVDGSEFDEFKALFGTTLVCGFAHLHGYPIAILANNGILFAEAAQKGAHFIELACQRGIPLLFLQNITGFMVGQKYEAGGIAKHGAKLVTAVACARVPKFTVLIGGSFGAGNYGMCGRAYDPRFLWMWPNARIGVMGGEQAAGVLAQVKREQAERAGQQLGVEEEAKIKAPILEQYEHQGHPYYSSARLWDDGVIDPAQTREVLALALSAALNAPIEPTAFGVFRM
Regarding B2, in the data set “crystal structure [2]”, the “stoichiometry N” value worked out at 6.
